Results taken from the supplement of paper PMC7877785.
± gives the uncertainty stated by the source.

Assay: self-splicing fitness, log relative to wild type (ln ratio); higher = more splicing; Tetrahymena group I intron in knt gene, E. coli kanamycin selection, DiMSum; sequences stand for … in CUCUCU…GGAGGGAAAAGUUAUCAGGCAUGCACCUGGUAGCUAGUCUUUAAACCAAUAGAUUGCAUCGGUUUAAAAGGCAAGACCGUCAAAUUGCGGGAAAGGGGUCAACAGCCGUUCAGUACCAAGUCUCAGGGGAAACUUUGAGAUGGCCUUGCAAAGGGUAUGGUAAUAAGCUGACGGACAUGGUCCUAACCACGCAGCCAAGUCCUAAGUCAACAGAUCUUCUGUUGAUAUGGAUGCAGUUCACAGACUAAAUGUCGGUCGGGGAAGAUGUAUUCUUCUCAUAAGAUAUAGUCGGACCUCUCCUUAAUGGGAGCUAGCGGAUGAAGUGAUGCAACACUGGAGCCGCUGGGAACUAAUUUGUAUGCGAAAGUAUAUUGAUUAGUUUUGGAGUACUCGUGGUCG
Outline: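 Fitness was computed with DiMSum as the error-weighted combination of replicate fold changes, kanamycin versus none, each normalised to wild type. The library randomised all eight intron nucleotides of the P1ex region, with the intron placed in the knt kanamycin-resistance gene on pET-22b(+) in E. coli BL21(DE3). Six replicate transformations were grown overnight at 37°C or 30°C on LB agar with or without 25 μg/mL kanamycin, plus 100 μg/mL carbenicillin, 50 μM IPTG and 0.2% rhamnose. Pooled colonies were amplicon-sequenced on an Illumina HiSeq 2500.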

With GGCAAGCAAUAUUACGCCAA the “self-splicing fitness (ln)” value (30 °C) was -1.93 ± 0.24 and the “self-splicing fitness (ln)” value (37 °C) was -1.36 ± 0.21.

For GGCAAGCAAUAUUACGCGUC, the “self-splicing fitness (ln)” value (30 °C) was -3.66 ± 0.34 and the “self-splicing fitness (ln)” value (37 °C) was -2.74 ± 0.36.

In the case of GGCAAGCAAUAUUACGCGUG, the “self-splicing fitness (ln)” value (30 °C) is reported as -1.95 ± 0.088 and the “self-splicing fitness (ln)” value (37 °C) is reported as -2.11 ± 0.095.

With GGCAAGCAAUAUUACGCUAU the “self-splicing fitness (ln)” value (30 °C) was -0.0842 ± 0.13 and the “self-splicing fitness (ln)” value (37 °C) was -1.13 ± 0.11.

In the case of GGCAAGCAAUAUUACGGAGA, the “self-splicing fitness (ln)” value (30 °C) is reported as -2.37 ± 0.24 and the “self-splicing fitness (ln)” value (37 °C) is reported as -2.22 ± 0.27.

In the case of GGCAAGCAAUAUUACGGGCA, the “self-splicing fitness (ln)” value (30 °C) is reported as -0.0236 ± 0.092 and the “self-splicing fitness (ln)” value (37 °C) is reported as 0.138 ± 0.1.

In the case of GGCAAGCAAUAUUACGGGUU, the “self-splicing fitness (ln)” value (30 °C) is reported as -0.709 ± 0.077 and the “self-splicing fitness (ln)” value (37 °C) is reported as -0.607 ± 0.08.

For GGCAAGCAAUAUUACGGUCC, the “self-splicing fitness (ln)” value (30 °C) was -2.95 ± 0.15 and the “self-splicing fitness (ln)” value (37 °C) was -2.1 ± 0.17.

For GGCAAGCAAUAUUACGGUGU, the “self-splicing fitness (ln)” value (30 °C) was -1.2 ± 0.059 and the “self-splicing fitness (ln)” value (37 °C) was -0.54 ± 0.09.

For GGCAAGCAAUAUUACGUAAU, the “self-splicing fitness (ln)” value (30 °C) was 0.0253 ± 0.063 and the “self-splicing fitness (ln)” value (37 °C) was 0.562 ± 0.074.

For GGCAAGCAAUAUUACGUAGG, the “self-splicing fitness (ln)” value (30 °C) was -1.09 ± 0.061 and the “self-splicing fitness (ln)” value (37 °C) was -0.937 ± 0.088.

In the case of GGCAAGCAAUAUUACGUAUG, the “self-splicing fitness (ln)” value (30 °C) is reported as -2 ± 0.092 and the “self-splicing fitness (ln)” value (37 °C) is reported as -1.74 ± 0.1.

For GGCAAGCAAUAUUACGUCAU, the “self-splicing fitness (ln)” value (30 °C) was -1.32 ± 0.072 and the “self-splicing fitness (ln)” value (37 °C) was -0.111 ± 0.083.

For GGCAAGCAAUAUUACGUGGA, the “self-splicing fitness (ln)” value (30 °C) was -1.28 ± 0.077 and the “self-splicing fitness (ln)” value (37 °C) was -0.277 ± 0.073.

In the case of GGCAAGCAAUAUUACGUUAG, the “self-splicing fitness (ln)” value (30 °C) is reported as -3.77 ± 0.2 and the “self-splicing fitness (ln)” value (37 °C) is reported as -2.57 ± 0.19.

For GGCCAGCAAUAUUACGAACU, the “self-splicing fitness (ln)” value (30 °C) was -0.359 ± 0.07 and the “self-splicing fitness (ln)” value (37 °C) was -0.12 ± 0.079.

With GGCCAGCAAUAUUACGACCU the “self-splicing fitness (ln)” value (30 °C) was -1.96 ± 0.19 and the “self-splicing fitness (ln)” value (37 °C) was -0.345 ± 0.22.

With GGCCAGCAAUAUUACGACGC the “self-splicing fitness (ln)” value (30 °C) was -1.02 ± 0.15 and the “self-splicing fitness (ln)” value (37 °C) was 0.369 ± 0.17.

In the case of GGCCAGCAAUAUUACGAGAC, the “self-splicing fitness (ln)” value (30 °C) is reported as -3.29 ± 0.25 and the “self-splicing fitness (ln)” value (37 °C) is reported as -2.77 ± 0.28.

With GGCCAGCAAUAUUACGAGCA the “self-splicing fitness (ln)” value (30 °C) was -0.969 ± 0.077 and the “self-splicing fitness (ln)” value (37 °C) was -0.145 ± 0.084.

With GGCCAGCAAUAUUACGAUAC the “self-splicing fitness (ln)” value (30 °C) was -2.04 ± 0.11 and the “self-splicing fitness (ln)” value (37 °C) was -0.501 ± 0.13.

In the case of GGCCAGCAAUAUUACGAUGU, the “self-splicing fitness (ln)” value (30 °C) is reported as -2.4 ± 0.092 and the “self-splicing fitness (ln)” value (37 °C) is reported as -1.92 ± 0.12.

In the case of GGCCAGCAAUAUUACGCAAG, the “self-splicing fitness (ln)” value (30 °C) is reported as -3.48 ± 0.25 and the “self-splicing fitness (ln)” value (37 °C) is reported as -3.15 ± 0.43.

In the case of GGCCAGCAAUAUUACGCAUG, the “self-splicing fitness (ln)” value (30 °C) is reported as -2.27 ± 0.12 and the “self-splicing fitness (ln)” value (37 °C) is reported as -1.3 ± 0.14.

With GGCCAGCAAUAUUACGCGCU the “self-splicing fitness (ln)” value (37 °C) was -1.76 ± 0.39.

With GGCCAGCAAUAUUACGGAAC the “self-splicing fitness (ln)” value (30 °C) was -0.685 ± 0.1 and the “self-splicing fitness (ln)” value (37 °C) was -0.981 ± 0.14.

For GGCCAGCAAUAUUACGGACG, the “self-splicing fitness (ln)” value (30 °C) was -0.421 ± 0.072 and the “self-splicing fitness (ln)” value (37 °C) was 0.71 ± 0.1.

With GGCCAGCAAUAUUACGGAUU the “self-splicing fitness (ln)” value (30 °C) was -0.639 ± 0.056 and the “self-splicing fitness (ln)” value (37 °C) was -0.524 ± 0.063.

For GGCCAGCAAUAUUACGUAUU, the “self-splicing fitness (ln)” value (30 °C) was -2.14 ± 0.11 and the “self-splicing fitness (ln)” value (37 °C) was -0.199 ± 0.087.

For GGCCAGCAAUAUUACGUGAG, the “self-splicing fitness (ln)” value (30 °C) was -2.13 ± 0.08 and the “self-splicing fitness (ln)” value (37 °C) was -1.49 ± 0.092.

With GGCCAGCAAUAUUACGUGGU the “self-splicing fitness (ln)” value (30 °C) was -3.49 ± 0.21 and the “self-splicing fitness (ln)” value (37 °C) was -1.76 ± 0.2.

In the case of GGCCAGCAAUAUUACGUUAC, the “self-splicing fitness (ln)” value (30 °C) is reported as -2.01 ± 0.12 and the “self-splicing fitness (ln)” value (37 °C) is reported as -0.532 ± 0.15.

For GGCCAGCAAUAUUACGUUGA, the “self-splicing fitness (ln)” value (30 °C) was -2.04 ± 0.12 and the “self-splicing fitness (ln)” value (37 °C) was -1.27 ± 0.12.

With GGCGAGCAAUAUUACGACAA the “self-splicing fitness (ln)” value (37 °C) was -1.05 ± 0.34.

For GGCGAGCAAUAUUACGACGG, the “self-splicing fitness (ln)” value (30 °C) was -3.28 ± 0.38 and the “self-splicing fitness (ln)” value (37 °C) was -3.37 ± 0.47.

With GGCGAGCAAUAUUACGACUC the “self-splicing fitness (ln)” value (30 °C) was -0.185 ± 0.14 and the “self-splicing fitness (ln)” value (37 °C) was 0.173 ± 0.24.

With GGCGAGCAAUAUUACGCAGA the “self-splicing fitness (ln)” value (30 °C) was -3.15 ± 0.4 and the “self-splicing fitness (ln)” value (37 °C) was -2.31 ± 0.23.

For GGCGAGCAAUAUUACGCAGG, the “self-splicing fitness (ln)” value (30 °C) was -2.43 ± 0.23 and the “self-splicing fitness (ln)” value (37 °C) was -2.75 ± 0.33.
